What all share (assay): EMSA
Data set [1] has as its system Clone 6 ZFP (6-finger) (artificial). The following applies: probe flanks not given; 0.1 mM ZnCl2.
In data set [2] the test system is Clone 7 ZFP (6-finger) (artificial). As to conditions: probe flanks not given; Table 5 prints TAGGTGGCATTGGGTGCTC, listing SEQ 67 tacgtggcattgggtgctc.
Data set [3] concerns Clone 5 ZFP (BCTV whole L1, 6-finger) (artificial). The following applies: probe 0.03 fmol per 10 ul; vast majority bound at 3 pM; 0.1 mM ZnCl2.

The Kd is the concentration at which binding is half-saturated. A higher Kd goes with lower affinity. Consider “AGTAAGGTAGGAGATGATA (double strand) [Clone 6 target]”, for which the Kd in data set [1] was < 3 pM.
“TACGTGGCATTGGGTGCTC (double strand) [Clone 7 target]”: the Kd in data set [2] is < 3 pM.
Turning to “TATATATATTGGGTGCTTTGGGTGCTCTATATATA (double strand) [BCTV whole L1 probe]”, in data set [3], the Kd is < 3 pM.

For the origin of these results see patent US20040091878.
